Experimental data taken from PMC3160658.

Tests used:
RAD52 (Homo sapiens) [1] = molecular target: T1, RAD52 (Homo sapiens) (UniProt P43351); assay: competition
T1 sequence: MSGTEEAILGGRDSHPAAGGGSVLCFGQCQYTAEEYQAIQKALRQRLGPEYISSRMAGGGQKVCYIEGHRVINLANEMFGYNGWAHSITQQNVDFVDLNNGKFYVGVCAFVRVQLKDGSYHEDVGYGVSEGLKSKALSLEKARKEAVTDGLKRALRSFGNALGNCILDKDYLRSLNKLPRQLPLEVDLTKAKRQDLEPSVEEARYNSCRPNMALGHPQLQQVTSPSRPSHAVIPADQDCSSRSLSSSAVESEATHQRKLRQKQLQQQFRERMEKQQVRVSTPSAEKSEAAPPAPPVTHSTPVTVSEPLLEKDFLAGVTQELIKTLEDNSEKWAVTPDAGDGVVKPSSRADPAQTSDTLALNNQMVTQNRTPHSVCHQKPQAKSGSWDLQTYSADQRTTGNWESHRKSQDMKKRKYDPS

[2] = molecular target: RAD52 Y104pCMF Y104pCMF (Homo sapiens) (UniProt P43351); assay: FRET titration; conditions: scale: nM protein at maximum FRET
[3] = molecular target: RAD52 Y104pCMF Y104pCMF (Homo sapiens) (UniProt P43351); assay: single-molecule FRET; conditions: amino modifier C6 dT at last dT of gap
RAD52 (Homo sapiens) [4] = molecular target: T1, RAD52 (Homo sapiens); assay: single-molecule FRET; conditions: amino modifier C6 dT at last dT of gap

Substance: linearized PhiX174 RFI dsDNA
- binding signal (% ssDNA released at 150 nM nt dsDNA) (RAD52 (Homo sapiens) [1]): 95.1

Substance: TTTTTTTTTTTTTTTTTTTTTTTTTTTTTT [Cy5-(dT)30-Cy3]
- binding signal [2]: 5

Substance: TATGCTCTAAGCCATCCATGTATTTTTTTTTTTTTTTTTTTTTTTTTTTTCCCTAGATACCAGTAGATTCGGAAA / TTTCCGAATCTACTGGTATCTAGGG / TACATGGATGGCTTAGAGCATA [gapped DNA, 28-nt (dT) gap]
- binding signal (% molecules in high FRET (wrapped) state) [3]: 43.5
- binding signal (% molecules in high FRET (wrapped) state) (RAD52 (Homo sapiens) [4]): 9.47
